Assay results reported in the supplement of paper PMC9170038.

Test system: K4 kissing-loop RNA reporter
Experiment: apparent KD of K4 kissing-loop reporter; higher = weaker reporter binding
Conditions: Eterna round: R107
Experimental: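 RNA-MaP round R107: designed RNA switches with theophylline, tryptophan, arginine or FMN aptamers are transcribed on-chip within common flanks. They are titrated with a labelled K4 kissing-loop RNA reporter in RNA-MaP buffer (100 mM Tris pH 7.5, 80 mM KCl, 4 mM MgCl2), without ligand or with the indicated ligand. Median apparent KD per design.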

[1] = input ligand: theophylline 20 uM
[2] = input ligand: tryptophan 2.4 mM
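Also: bound reporter read as fluorescence of individual clusters on recovered sequencing chips by microscopy, with normalized cluster intensities fitted with a binding model.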

Sequence | apparent KD of K4 kissing-loop reporter (input ligand: FMN 200 uM) | apparent KD of K4 kissing-loop reporter (input ligand: arginine 13.2 mM) | apparent KD of K4 kissing-loop reporter (input ligand: none) | apparent KD of K4 kissing-loop reporter [1] | apparent KD of K4 kissing-loop reporter [2]
AGCUCAGAGUGACUUGAUAAGAGUCACAAACGAGGACCGGUACGGCCGCCACUCGAAAUAACGAGAGUGAUGUUCUCGCUGAGCA [FiskerMod 5 - Jieux - Same State Tryptophan A] | 696 nM | 564 nM | 980 nM | 843 nM | 328 nM
AGGAGCGUGGGAUGCAAAUCGCACGCUCCUCGAGGACCGGUACGGCCGCCACUCGCUCGCGCCGAGUGAUGUUCGGCCGGCGAAC [#2 Same State - Tryptophan A Attempt #14 (HarryS)] | 221 nM | 232 nM | 247 nM | 266 nM | 407 nM
AGGAUCCGUCGACAAAAGUCGACAUAAUCCAAGGAUAUGACGAAAGUCAGAAGGUGGGCAUAAGUCCAGUGAUGUUGGAGGAUCC [FmnA 18 #SwitchBubble #K4Late] | 575 nM | 360 nM | 587 nM | 523 nM | 445 nM
AGGGUAAGGCGUUAACAUGACACCUGGGAAGGAGCGCAGUACACUGCAGGUAGGUCGCCCAGUGAUGUUGGGCGUAUGUAUUAGU [Legexeso] | 140 nM | 143 nM | 153 nM | 200 nM | 119 nM
AGGGUAAGGCGUUAACAUGACACCUGGGAAGGAGCGCGGUACACCGCAGGUAGGUCGCCCAGUGAUGUUGGGUGAUUGUAUGAGU [KL-XArg-A24] | 149 nM | 123 nM | 136 nM | 150 nM | 131 nM
AGGGUAAGGCGUUAACAUGACACCUGGGAAGGAGCGCGGUACACCGCAGGUAGGUCGCCCAGUGAUGUUGGGUGUAUGUAUGAGU [KL-XArg-A21] | 170 nM | 120 nM | 139 nM | 154 nM | 132 nM
AGGUCACCAGGAAGGAGCGCCCUGACAGGUUGCUGCCGUGGGCAGUGAUGUUGCUCAGUCCGGCAGGUAGGUCGCCUGGUGACCU | 139 nM | 158 nM | 154 nM | 125 nM | 157 nM
AGGUUUUGAUUAGGAUAUGCACUGAGGACGAGAAUAUAGUGAUGUUAUAUAAUAGGAAUUAGUAGAGUAGAAGGGAUUGAGGUUU [SSFMNB.V] | 244 nM | 153 nM | 183 nM | 194 nM | 161 nM
AGGUUUUGAUUAGGAUAUGCACUGAGGAGGAGAAUAUAGUGAUGUUAUAUAAUAGGAAUUAGUAGAGUAGAAGGGAUUGAGGUUU [SSFMNB.U] | 206 nM | 223 nM | 172 nM | 248 nM | 142 nM
AGGUUUUGAUUAGGAUAUGCAUUGACGAUGAGAAUAUAGUGAUGUUAUAUACUACGAAUUAGUAAAGUAGAAGGGAUUGAGGUUU [SSFMNB.aA] | 353 nM | 275 nM | 324 nM | 368 nM | 241 nM
AGUACGCCCAGUGAUACCAGCCCGCCUGGGCAGUGAUGUUGCUCGGGAAAUAAAAUAGAGGGCCCUUGGCAGCACACGGUAGUCC [Cees] | 186 nM | 144 nM | 189 nM | 107 nM | 174 nM
AGUAGUUGGGCGGCCGCCACUAGAACAGCUUUGCCAAAGGCAGAGCUCUAGAGUGAUGUUCUGGCUAGGACCGGGUCCAACUACA [#01 K4 Tryptophan B Same State] | 930 nM | 594 nM | 932 nM | 980 nM | 417 nM
AGUCCACUCUAAAGAGUGGACCUAAGGGAUACCAGUGAUGUUGGUCACCCUUGGCAGCCCAGGGCCCGGCGAAUAGCCGGGCCCA [#10 K4 Theophylline A Exclusion] | 125 nM | 99.8 nM | 115 nM | 121 nM | 125 nM
AGUCCACUCUAAAGAGUGGACCUAAGGGAUACCAGUGAUGUUGGUCACCCUUGGCAGCCCUCUGUCAUCGAUAAAGAUGGCAGCA | 132 nM | 114 nM | 136 nM | 149 nM | 145 nM
AGUCGCAGUGAUGUUGCGAUUCCGUUGAGGGAGGAUAUUGGUAAUACAAGAAGGCCCGGCUGCGGGUGAUGUUCGCAAUAGGGCC [Exclusion FMN A GF19] | 138 nM | 108 nM | 117 nM | 112 nM | 105 nM
AGUGAAGUUAGUGAUGUGUGAGUUUGGGAAGGAGCGCCGAGGAAGGCAGGUAGGUCGCCCAGUGAUGUUGGUGUAAAGAUGAGAG [whbob_Ex_Arginine_A_2t122] | 308 nM | 135 nM | 158 nM | 254 nM | 231 nM
AGUGAUAUAUGAGGAUAUGGGAUAGUUAAUGAGUUAGUUUUAGUGUUGUUUGGUUAGUGAUGUUAUUUAGAAGGCGUGAGUGAUG [tptymullin] | 107 nM | 74.3 nM | 76.7 nM | 106 nM | 74.4 nM
AGUGAUAUAUGAGGAUAUGGGUUUGUUAAUGAGUUAGUUUUAGUGUUGUUUGGUUAGUGAUGUUAUUUAGAAGGCGUGAGUGAUG [vkkjkjmullin] | 103 nM | 79.8 nM | 79.9 nM | 140 nM | 72.8 nM
AGUGAUGUAUGGCGGUUGGUCACUUAGGAUCAGGAUAUAUAAACAAAUAGAAGGGAUGGCGGAGUGAUGUUCCGCCGGCCGCCAU [FMN A Exl V2] | 173 nM | 130 nM | 177 nM | 191 nM | 170 nM
AGUGAUGUGGGAAGGAGCGCUACAAGACUUCAGUGAUGUUGAAGUGAUGUUUUAGUGUUGUAGCAGGUAGGUCGCCUAGAUGUUA [KL-XARG-B10] | 71.2 nM | 31.9 nM | 42.5 nM | 45.7 nM | 43.7 nM
AGUGAUGUGGGAAGGAGCGCUACAUGACUUCAGUGAUGUUGAAGUGAUGAUUUAGUGAUGUAGCAGGUAGGUCGCCUAGAUGUUA [KL-XARG-B8] | 98.3 nM | 41.2 nM | 77.2 nM | 77.5 nM | 62.5 nM
AGUGAUGUUGAGUGAUGUUAGUGAAGUGAUCGAGGACCGGUACGGCCGCCACUCGAGUGAUGAGUGAGUGAUGUUUGUUUAGUGA [hhbmullin] | 168 nM | 74.4 nM | 113 nM | 120 nM | 78.2 nM

Sequence | apparent KD of K4 kissing-loop reporter (input ligand: FMN 200 uM) | apparent KD of K4 kissing-loop reporter (input ligand: arginine 13.2 mM) | apparent KD of K4 kissing-loop reporter (input ligand: none) | apparent KD of K4 kissing-loop reporter [1] | apparent KD of K4 kissing-loop reporter [2]
AGUGAUGUUGAGUUAUCUUAGUGAAGUGAUCGAGGACCGGUACGGCCGCCACUCGAGUGAUGAGUGAGUGAUGUUUGUUUAGUGA [zzymullin] | 546 nM | 431 nM | 549 nM | 593 nM | 311 nM
AGUGAUGUUUUUUUUAAGAGUGAUGUUUUUCGAGGACCGGUACGGCCGCCACUCGAGUGAGGAGUGCGGUGGUGAGAUGUUGAGU [oomullin] | 549 nM | 466 nM | 677 nM | 589 nM | 519 nM
AGUGAUGUUUUUUUUAAGAGUGAUGUUUUUCGAGGACCGGUACGGCCGCCACUCGAGUGAUGAGUGAGGUGUGGUGAUGUUUAGU [#09 K4 Tryptophan A Exclusion] | 287 nM | 279 nM | 351 nM | 316 nM | 205 nM
AGUGAUGUUUUUUUUAAGAGUGAUGUUUUUCGAGGACCGGUACGGCCGCCACUCGAGUGAUGAGUGAGGUGUUGUGAUGUUUAGU [cxmullin] | 436 nM | 314 nM | 458 nM | 504 nM | 248 nM
AGUGCACUGUCAGGAUAUAUACAGUGAUGUUGUGUAUGUCAGCAAGUCAAAGACUUGCUAUUUUGUAUAGAAGGGACUGUGUACA [whbob_Ex_FMNB__2th222] | 574 nM | 258 nM | 294 nM | 276 nM | 286 nM
AGUGCAUGCUCGGCCGCCACUCAGAAGAAGAUAGAAGUGAUGUUUCUAAUGAUGAGAAUAAUAAAGAGGACCGGGAGAUGUGCAA [First try] | 122 nM | 125 nM | 149 nM | 164 nM | 116 nM
AGUGGACGUGUCCGGAGUGAUGUUCCGGAUACCAGACACGAAAGUGUCCCUUGGCAGCAGGAGUGAUGUUCCGGCGUUCACUAAA [Omei KL Theo A Exc B v3] | 351 nM | 223 nM | 314 nM | 347 nM | 274 nM
AGUGUCAGUGAUGUUGAGAAGAUGGGUACUAAGGAUAUGCGGCGAUGCAGAAGGUAGAAUGAUUAGUUCGCAUGUUAUGAGGGAU [theeternabot_exclusion_KL_FMN_A_46] | 484 nM | 364 nM | 573 nM | 487 nM | 336 nM
AUAAACUUGCAGUGAUGUUGCAAGUAAGACUAGGAUAUCAGGAAACUGAGAAGGAGUCAUCUCCUUCAAACAUCACUAUGAAGGA [[K1]-[K2]-[F1]-[F2]-[F]'-[K]'-[F]''_Design5] | 507 nM | 263 nM | 384 nM | 413 nM | 331 nM
AUAAACUUGCAGUGAUGUUGCAAGUAAGACUAGGAUAUCAGGAAGCUGAGAAGGAGUCAUCUCCUUCAAACAUCACUAUGAAGGA [whbob_SS_FMNA__2th177] | 413 nM | 245 nM | 289 nM | 328 nM | 253 nM
AUAAAUAAUAAUGACUGAGAGUUUGGUGAGCGAGGACCGGUACGGCCGCCACUCGUACAUGAGUGAUGUUCUUGUAUGAGUCAGA [KL-XTryp-A6 #analogue] | 127 nM | 97.6 nM | 95.6 nM | 97.6 nM | 105 nM
AUAAUCUUGCAGUGAUGUUGCAAGAAAGCUCAGGAUAUCAGGAAACUGAGAAGGGAGCAUCCUGAGCACUUGCAACAGUGCUCAG [[K1]-[K2]-[F1]-[F2]-[F]'-[K]'-[F]''_Design3] | 127 nM | 100 nM | 296 nM | 288 nM | 117 nM
AUACGCGAUAGCGUAUAUAACAAAUCAGAAGGAGCGUGGAAGUACACAGGUAGGUCGCUGAAAAUAGGACUAGUGAUGUUAGUUA [JR_Nu_SSArginiA_Sub026] | 211 nM | 193 nM | 232 nM | 172 nM | 166 nM
AUAGGAGUGAUGUUCCUUAGUCCCUCCGAUACCAGUAUGGAAACAUACCCUUGGCAGCGGUGGACCGCAGAUUAGGAAACUAGUC [Theophylline A K4 4] | 232 nM | 238 nM | 216 nM | 231 nM | 206 nM
AUAGGAGUGAUGUUCCUUAGUUUCUCCGAUACCAGUAUGGAAACAUACCCUUGGCAGCGGUAAACCGCAGAUUAGGAAACUAGUC [Theophylline A K4 2] | 308 nM | 332 nM | 324 nM | 241 nM | 297 nM
AUAGGCAUAGCCCGAGUGAUGUUCGACGAUACCAGCCUCGAUAGAGGCCCUUGGCAGCGUAAAUGAUCAUGAAGCCAAGGAAUAA [whbob_Ex_Theo_A_th69] | 342 nM | 313 nM | 442 nM | 353 nM | 313 nM
AUAUACCAGUGAUGUUGGUAUACUAUCGAUACCAGUAGAUACCAAUACCCUUGGCAGCGAUAAGACCGUACUGUAGCCAGUACUU [Theo A SS t4] | 250 nM | 191 nM | 255 nM | 340 nM | 225 nM
AUAUAGUGAUGUUAUAUAAUAAUCUCUGAUACCAGUCAUUUAGAAGACCCUUGGCAGCAGCUAUAUAUAGGGAAACAAUACAUAA [AstrosExytheA#1] | 739 nM | 649 nM | 709 nM | 925 nM | 491 nM
AUAUUGGUUGAGAGUGAUGUUCCUUGUGUUCGAGGACCGGUACGGCCGCCACUCGGGUAGAAAAUAAAAGAUGUGUUUGAUUUUU [BDazzled - #13 SS Tryptophan A] | 237 nM | 101 nM | 125 nM | 185 nM | 212 nM
AUCACAGUGAUGUUGUGAUAUACUUCAGAUACCAGACUAGUGCUAGUCCCUUGGCAGCUGAACUCAGCAGCACCACUAGCACUCG [Theo A Ex t6a] | 153 nM | 130 nM | 139 nM | 144 nM | 134 nM
AUCACAGUGAUGUUGUGAUAUGAUUCAGAUACCAGACUAGUGCUAGUCCCUUGGCAGCUGAACUCAGCAGCACCACUAGCACUCU [Theo A Ex t6] | 157 nM | 132 nM | 148 nM | 166 nM | 149 nM
